Measurements: patent publication US11732029B2, “Methods and compositions for the treatment of wounds” (The University of Chicago, priority 2017, dated 2023)
Entries after “also recorded” stand apart in the source; their conditions may differ.

Experiments:
[1] = target: T1, VEGF-A121 (Homo sapiens, UniProt P15692); assay: Surface plasmon resonance, vWF against GF; type: binding; set-up: All growth factors (GFs) and chemokines were purchased in their mature forms; purchased PeproTech; host or cells: Escherichia coli; conditions: vWF immobilized, VEGF-A121 50-800 nM
T1 sequence (P15692 27-147 isoform P15692-9 limits assumed): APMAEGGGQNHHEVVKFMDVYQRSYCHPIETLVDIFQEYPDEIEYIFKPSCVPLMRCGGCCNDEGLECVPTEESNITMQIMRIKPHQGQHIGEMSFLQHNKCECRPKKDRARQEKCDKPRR
Protocol: (§1) SPR assays were performed as described previously2. In brief, measurements were made with a Biacore X100 SPR system or Biacore 3000 SPR system (GE Healthcare). Plasma-derived vWF was immobilized via amine coupling on a C1 chip (GE Healthcare) for 2000 resonance units (RU) according to the manufacturer's instructions. Recombinant human VEGF-A165, VEGF-A121, or PDGF-BB was flowed at increasing concentrations in the running buffer at 30 μL/min. The sensor chip was regenerated with glycine at pH 2 for every cycle. Specific binding of GFs to vWF was calculated automatically using the response to a non-functionalized channel as a reference. Binding curves were fitted using BIAevalution software (GE Healthcare). vWF-VEGF-A165 binding results were fitted with Langmuir binding kinetics (1:1 binding with drifting baseline Rmax local). vWF-PDGF-BB binding results were fitted with heterogeneous ligand-parallel reaction.

[2] = target: T2, PDGF-BB (Homo sapiens, UniProt P01127); assay: Surface plasmon resonance, vWF against GF; conditions: SPR; vWF immobilized; two estimated binding sites, heterogeneous ligand-parallel reaction fit; read-out: lowest KD value for PDGF-BB
T2 construct: All growth factors (GFs) and chemokines were purchased in their mature forms; purchased PeproTech; host or cells: Escherichia coli
Protocol: as §1

[3] = target: T3, PlGF-2 (Homo sapiens, UniProt P49763); assay: vWF binding to recombinant GFs (ELISA); set-up: All GFs and chemokines were purchased in their mature forms; purchased PeproTech; host or cells: Escherichia coli; conditions: VEGF-A121 signal as baseline
T3 sequence (P49763 19-170 isoform P49763-3 limits assumed): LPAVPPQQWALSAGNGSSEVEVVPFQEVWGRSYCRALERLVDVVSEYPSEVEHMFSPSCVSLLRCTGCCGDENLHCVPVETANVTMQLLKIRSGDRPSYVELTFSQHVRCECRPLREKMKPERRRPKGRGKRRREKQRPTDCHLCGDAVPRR
Protocol: ELISA tests were performed as previously reported1. In brief, ELISA plates (med-binding, Greiner Bio-One) were coated with 50 nM GFs at 37° C. for 2 hrs. After blocking with 2% BSA solution containing PBS-T, 1 μg/mL of plasma-derived vWF (EMD Millipore) was added. Bound vWF was detected with 1 μg/mL of rabbit anti-human vWF antibody (Sino Biological). Then, HRP conjugated goat anti-rabbit antibody (Jackson ImmunoResearch) was added. After 60 min of incubation, 50 μL TMB substrate (Sigma-Aldrich) was added. The reaction was stopped by adding 25 μL of 2N H2SO4. Subsequently, the absorbance at 450 nm was measured and subtracted the absorbance at 570 nm.

[4] = test system: human lung fibroblasts; assay: Cell proliferation assay with vWF HBD, fibroblasts; type: cell-based; conditions: vWF HBD coated plates, 72 hrs, in the presence of FGF-2
Protocol: Cell proliferation assays were performed as previously reported1. Briefly, human lung fibroblasts (Lonza) were cultured using FGM-2 medium (Lonza) (1000 cells/well) or human umbilical vein endothelial cells (HUVEC, Lonza) were cultured using EGM-2 medium (Lonza) (1000 cells/well) on 1 μg/mL vWF HBD pre-coated 96-well plates (Tissue culture treated, Falcon). Cell numbers were quantified after 72 hrs using a CyQUANT assay (Invitrogen).

[5] = target: T4, VEGF-A165 (Homo sapiens, UniProt P15692); assay: Recombinant GF binding to the vWF recombinant protein and A1 HBD peptide (ELISA); conditions: plate coated with vWF protein, A1 domain or HBD peptide, 1 μg/mL GF
T4 construct: All growth factors (GFs) and chemokines were purchased in their mature forms; purchased PeproTech; host or cells: Escherichia coli
T4 sequence (P15692 27-191 isoform P15692-4 limits assumed): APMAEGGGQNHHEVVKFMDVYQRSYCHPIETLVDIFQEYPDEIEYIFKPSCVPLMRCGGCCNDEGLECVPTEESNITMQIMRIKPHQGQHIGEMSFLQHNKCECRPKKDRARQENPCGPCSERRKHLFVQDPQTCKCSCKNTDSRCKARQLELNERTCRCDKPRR
Protocol: (§2) ELISA tests were performed as described above. In brief, ELISA plates were coated with 1 μg/mL of FL-vWF (WT or R1341Q), 1 μg/mL of vWF A1 recombinant protein (U-Protein Express) or 1 μg/mL of vWF A1 HBD peptide (sequence […], (SEQ ID NO:50) chemically synthesized by Genscript) at 37° C. overnight. After blocking with 2% BSA solution containing PBS-T, 1 μg/mL of the recombinant human proteins VEGF-A121, VEGF-A165, PlGF-1, PlGF-2, PDGF-BB, FGF-2, CXCL-12α and CXCL-12γ were added. 1 μg/mL of BSA served as non-binding protein control. Bound GF or chemokine was detected with biotinylated antibodies for human VEGF-A, PlGF, PDGF-BB, FGF-2, or CXCL-12 (R & D Systems). The antibodies were detected by streptavidin-HRP (R & D Systems). Color development and the absorbance measurement were done as described above.

[6] = target: T5, CXCL-12γ (Homo sapiens, UniProt P48061); assay: as above; conditions: plate coated with vWF protein, A1 domain or HBD peptide, 1 μg/mL GF
T5 construct: All GFs and chemokines were purchased in their mature forms; purchased R & D Systems; host or cells: Escherichia coli
Protocol: as §2

[7] = target: T2, PDGF-BB; assay: as above; conditions: plate coated with vWF protein, A1 domain or HBD peptide, 1 μg/mL GF
Protocol: as §2

[8] = test system: human lung fibroblasts; assay: Cell adhesion assay on vWF HBD coated plates; type: cell-based; conditions: 1 μg/mL vWF HBD coated plates
Protocol: Cell adhesion assays were performed using starved human lung fibroblasts (Lonza) in FGM-2 medium (Lonza) with or without 5 mM EDTA. Cells were plated at 3000 cells/well on 1 μg/mL vWF HBD pre-coated 96-well plates (non-tissue culture treated, Greiner Bio-one) and incubated for 30 min at 37° C. Then, the medium was removed, and wells were further washed three times with new FGM-2 medium. Cell numbers were quantified using a CyQUANT assay (Invitrogen).

T2 sequence (P01127 82-190 limits assumed): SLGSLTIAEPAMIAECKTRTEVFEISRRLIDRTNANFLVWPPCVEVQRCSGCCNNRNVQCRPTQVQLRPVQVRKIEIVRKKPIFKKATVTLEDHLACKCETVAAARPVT
T5 sequence (P48061 22-119 isoform P48061-3): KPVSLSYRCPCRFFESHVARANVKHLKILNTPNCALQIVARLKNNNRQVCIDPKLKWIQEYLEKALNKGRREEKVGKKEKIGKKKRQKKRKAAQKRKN

Substance	binding to VEGF-A121 by SPR [1]	Kd [2] [µM]	vWF binding to PlGF-2 [3]	fibroblast proliferation [4]	binding to VEGF-A165 [5]	binding to CXCL-12γ [6]	binding to PDGF-BB [7]	fibroblast attachment with EDTA ([8]; 5 mM EDTA)	fibroblast attachment ([8]; 30 min, without EDTA)
vWF: human plasma-derived von Willebrand factor (EMD Millipore)	did not show significant binding; also recorded: No binding was observed	0.024	bound	–	–	–	–	–	–
YIGLKDRKRPSELRRIASQVKYAC [vWF HBD]	–	–	–	did not significantly affect fibroblast proliferation	showed binding	showed binding	showed binding	inhibited	significantly enhanced fibroblast attachment
